Test results published in publication PMC8287548.

Columns and labels:
[1] = target: SpyCatcher-HPF (not stated | Helicobacter pylori); assay: covalent conjugation
[2] = target: SpyCatcher-HPF (not stated | Helicobacter pylori); assay: SPR

SpyTag-RBD (from UniProt P0DTC2 319-541)
conjugation efficiency [1]: < 40% | Kd [2]: 2680 nM
